Data on twelve molecules can be found in patent US20250250357A1 (NANJING ZAIMING PHARMACEUTICAL, published 2025).

Test [1] concerns the target T1, human MSLN on OVCAR3 tumor cells (human, UniProt Q13421 296-598).
T1 construct: whole, on cells; also called human MSLN protein
Nature of the test: FACS, OVCAR3 cells. (In general: In flow cytometry, cells or beads pass a laser one at a time.)

The target of test [2] is T2, monkey MSLN on HEK293T-monkey MSLN recombinant cells (monkey).
T2 construct: Full-length precursor as transfected; processing on the cell is not described; also called HEK293-monkey MSLN
T2 chain: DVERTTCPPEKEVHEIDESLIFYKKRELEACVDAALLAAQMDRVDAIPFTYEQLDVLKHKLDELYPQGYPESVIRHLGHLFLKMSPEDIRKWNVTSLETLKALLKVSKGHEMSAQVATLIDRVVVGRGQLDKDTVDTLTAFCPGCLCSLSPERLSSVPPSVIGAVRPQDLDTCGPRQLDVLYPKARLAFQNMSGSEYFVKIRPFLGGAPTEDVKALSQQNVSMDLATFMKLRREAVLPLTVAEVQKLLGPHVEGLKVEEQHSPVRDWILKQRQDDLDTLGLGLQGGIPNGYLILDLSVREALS
Nature of the test: FACS, HEK293T-monkey MSLN cells.

The target in test [3] is T3, human MSLN-R3 on HEK293T-hMSLN-R3 recombinant cells (human, UniProt Q13421 487-606).
T3 construct: the C-terminal limit is uncertain; also called human MSLN-R3 membrane protein
Put plainly: FACS, HEK293T-hMSLN-R3 cells.

Test [4] deals with T1, human MSLN on OVCAR3 tumor cells. Put plainly: FACS, OVCAR3 cells. This is another data set of the same source.
Test [5] deals with T2, monkey MSLN on HEK293T-monkey MSLN …. Nature of the test: FACS, HEK293T-monkey MSLN cells.
For test [6], the target named is T4, human MSLN-hFc recombinant protein (human, UniProt Q13421 296-580).
T4 construct: Captured by an anti-human IgG antibody on the chip; also called human MSLN protein; Acro MSN-H5253
Nature of the test: SPR (Biacore 8K), MSLN-hFc captured, antibody injected. In general terms: Surface plasmon resonance follows binding to a sensor surface in real time, without labels.

For test [7], the target named is T3, human MSLN-R3 on HEK293T-hMSLN-R3 …. Put plainly: FACS, HEK293T-hMSLN-R3 cells. The source holds these as a separate data set.

Where two headings read alike, the source gives them in different places.

T1 sequence (Q13421 other isoform, or with tags, fused parts or gaps): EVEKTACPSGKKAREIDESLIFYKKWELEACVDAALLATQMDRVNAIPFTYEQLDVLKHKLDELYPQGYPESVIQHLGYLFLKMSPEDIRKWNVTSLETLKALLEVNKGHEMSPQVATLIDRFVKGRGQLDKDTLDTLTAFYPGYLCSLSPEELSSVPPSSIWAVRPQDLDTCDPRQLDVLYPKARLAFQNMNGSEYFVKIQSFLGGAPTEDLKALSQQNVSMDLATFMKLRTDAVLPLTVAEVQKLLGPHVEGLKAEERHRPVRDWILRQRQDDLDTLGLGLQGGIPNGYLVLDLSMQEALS
T4 sequence (Q13421 other isoform, or with tags, fused parts or gaps): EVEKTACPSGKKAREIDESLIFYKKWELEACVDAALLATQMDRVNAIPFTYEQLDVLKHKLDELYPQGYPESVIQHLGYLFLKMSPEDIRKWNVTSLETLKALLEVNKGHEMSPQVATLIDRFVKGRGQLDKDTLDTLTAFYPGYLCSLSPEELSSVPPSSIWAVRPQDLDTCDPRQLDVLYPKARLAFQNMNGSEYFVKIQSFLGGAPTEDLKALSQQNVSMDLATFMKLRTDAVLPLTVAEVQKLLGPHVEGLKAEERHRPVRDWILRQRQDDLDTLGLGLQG
T3 sequence (Q13421 495-614): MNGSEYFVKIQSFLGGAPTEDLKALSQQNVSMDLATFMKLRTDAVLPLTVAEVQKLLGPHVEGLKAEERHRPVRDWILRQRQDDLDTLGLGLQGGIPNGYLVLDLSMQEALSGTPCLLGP

B1: F2.39.3-H5 (scFv, not shown: small tags and cut ends)
scFv: EVQLVQSGAEVKKPGASVKVSCKASGYTFTNYWMHWVRQAPGQGLEWMGNINPSSGDSYYNERFMSRVTMTVDKSTSTAYMELSSLRSEDTAVYYCARSGGLWLAFWGQGTLVTVSSGGGGSGGGGSGGGGSDIVMTQSPDSLAVSLGERATINCKSSQTLLNSVSQNNYLAWYQQKPGQSPKLLIYFASTRESGVPDRFSGSGSGTDFTLTISSLQAEDVAVYYCQQHYRTPYTFGGGTKVEIK
notes: also called S009-F2.39.3 humanized antibody VH2 + VL1
The term EC50 denotes the concentration at which the effect is half-maximal. Regarding B1, the EC50 in test [1] was 6.37 nM; in test [2], 5.64 nM; in test [3] it was 4.65 nM. The results for the Maximum_MFI in test [1], in test [2] and in test [3] were 3140 MFI, 22500 MFI and 5650 MFI, respectively.

B2: F2.39.3-H6 (scFv, not shown: small tags and cut ends)
scFv: EVQLVQSGAEVKKPGASVKVSCKASGYTFTNYWMHWVRQAPGQGLEWMGNINPSSGDSYYNERFMSRVTMTVDKSTSTAYMELSSLRSEDTAVYYCARSGGLWLAFWGQGTLVTVSSGGGGSGGGGSGGGGSDIVMTQSPDSLAVSLGERATINCKSSQTLLNSVSQNNYLAWYQQKPGQSPTLLIYFASTRESGVPDRFSGSGSGTDFTLTISSLQAEDVAVYYCQQHYRTPYTFGGGTKVEIK
notes: also called S009-F2.39.3 humanized antibody VH2 + VL2
With B2, the EC50 in test [1] came to 40.3 nM; in test [2], 8.9 nM; in test [3] it was 6.26 nM. Besides, the Maximum_MFI in test [1] is 4160 MFI; in test [2], 24100 MFI; in test [3], 5780 MFI.

B3: F2.39.3-H1 (scFv, not shown: small tags and cut ends)
scFv: EVQLVQSGAEVKKPGASVKVSCKASGYTFTNYWMHWVRQAPGQGLEWMGNINPSSGDSYYNERFMSRVTMTVDKSTSTVYMELSSLRSEDTAVYYCARSGGLWLAFWGQGTLVTVSSGGGGSGGGGSGGGGSDIVMTQSPDSLAVSLGERATINCKSSQTLLNSVSQNNYLAWYQQKPGQSPKLLIYFASTRESGVPDRFSGSGSGTDFTLTISSLQAEDVAVYYCQQHYRTPYTFGGGTKVEIK
notes: also called S009-F2.39.3 humanized antibody VH1 + VL1
As for B3, the EC50 was found to be 11 nM in test [1], 5.31 nM in test [2] and 4.91 nM in test [3]. The Maximum_MFI in test [1] turned out to be 4000 MFI; in test [2], 24400 MFI; in test [3], 5820 MFI.

B4: F2.39.3-H8 (scFv, not shown: small tags and cut ends)
scFv: EVQLVQSGAEVKKPGASVKVSCKASGYTFTNYWMHWVRQAPGQGLEWMGNINPSSGDSYYNERFMSRVTMTVDKSTSTAYMELSSLRSEDTAVYYCARSGGLWLAFWGQGTLVTVSSGGGGSGGGGSGGGGSDIVMTQTPLSLSVTPGQPASISCKSSQTLLNSVSQNNYLAWYQQKPGQSPTLLVYFASTRESGVPDRFSGSGSGTDFTLKISRVEAEDVGVYYCQQHYRTPYTFGGGTKVEIK
notes: also called S009-F2.39.3 humanized antibody VH2 + VL4
As to B4, the EC50 in test [1] was 18.6 nM; in test [2], 12.8 nM; in test [3] it was 6.91 nM. The Maximum_MFI stood at 4120 MFI in test [1], 26000 MFI in test [2] and 5600 MFI in test [3].

B5: F2.23.12-H1 (scFv, not shown: small tags and cut ends)
scFv: EVQLVQSGAEVKKPGASVKVSCKASGYTFTNYWMHWVRQAPGQGLEWMGNINPSNGGPYYNERFRSRVTMTVDKSTSTVYMELSSLRSEDTAVYYCARPYYGSSYGYFDYWGQGTTVTVSSGGGGSGGGGSGGGGSDIQMTQSPSSLSASVGDRVTITCKASQDINKYIAWYQQKPGKAPKLLIHYTSELQPGVPSRFSGSGSGTDFTFTISSLQPEDIATYYCLQYANPLRTFGGGTKVEIK
notes: also called S009-F2.23.12 humanized antibody VH1 + VL1
For B5, the EC50 in test [1] was found to be 9.56 nM; in test [2], 6.72 nM; in test [3], 4.7 nM. Besides, the results for the Maximum_MFI in test [1], in test [2] and in test [3] were 3250 MFI, 16000 MFI and 4720 MFI, respectively.

B6: F2.23.12-H8 (scFv, not shown: small tags and cut ends)
scFv: EVQLVQSGAEVKKPGASVKVSCKASGYTFTNYWMHWVRQAPGQGLEWMGNINPSNGGPYYNERFRSRVTMTVDKSTSTAYMELSSLRSEDTAVYYCARPYYGSSYGYFDYWGQGTTVTVSSGGGGSGGGGSGGGGSDIQMTQSPSSLSASVGDRVTITCKASQDINKYIAWYQHKPGKAPKLLIHYTSELQPGVPSRFSGSGSGRDYTFTISSLQPEDIATYYCLQYANPLRTFGGGTKVEIK
notes: also called S009-F2.23.12 humanized antibody VH2 + VL4
In the case of B6, the EC50 in test [1] came out at 14.5 nM; in test [2], 5.22 nM; in test [3] it was 5.57 nM. For the same molecule, the Maximum_MFI came to 3040 MFI in test [1], 14700 MFI in test [2] and 4590 MFI in test [3].

B7: F2.23.12-H4 (scFv, not shown: small tags and cut ends)
scFv: EVQLVQSGAEVKKPGASVKVSCKASGYTFTNYWMHWVRQAPGQGLEWMGNINPSNGGPYYNERFRSRVTMTVDKSTSTVYMELSSLRSEDTAVYYCARPYYGSSYGYFDYWGQGTTVTVSSGGGGSGGGGSGGGGSDIQMTQSPSSLSASVGDRVTITCKASQDINKYIAWYQHKPGKAPKLLIHYTSELQPGVPSRFSGSGSGRDYTFTISSLQPEDIATYYCLQYANPLRTFGGGTKVEIK
notes: also called S009-F2.23.12 humanized antibody VH1 + VL4
For the molecule B7, the values for the EC50 in test [1], in test [2] and in test [3] were 9.9 nM, 2.5 nM and 2.67 nM, respectively. Further, the values for the Maximum_MFI in test [1], in test [2] and in test [3] were 3630 MFI, 14500 MFI and 4760 MFI, respectively.

B8: F7.33.24-H2 (scFv, not shown: small tags and cut ends)
scFv: EVQLVQSGAEVKKPGASVKVSCKASGYTFTSYWMHWVRQAPGQRLEWMGNVNPSNGGSNYNEKFKNRVTITVDKSASTAYMELSSLRSEDTAVYYCAPHYIGSRPGFAYWGQGTLVTVSSGGGGSGGGGSGGGGSDIVMTQTPLSLSVTPGQPASISCKASQNVGTNIAWYLQKPGQSPQALIYSASYRYSGVPDRFSGSGSGTDFTLKISRVEAEDVGVYYCQQYNSYPLTFGGGTKVEIK
notes: also called S009-F7.33.24 humanized antibody VH1 + VL2
Broadly, the Kd is the equilibrium constant for the complex coming apart. By koff is commonly meant a measure of how fast the partners let go of each other. Broadly, the kon is the second-order rate constant of association. In test [4], B8 gave an EC50 of 2.07 nM and a Maximum_MFI of 2190 MFI. Moreover, in test [5], the EC50 was found to be 5.11 nM and the Maximum_MFI came to 8170 MFI. Besides, in test [6], the Kd was 1.83 nM, the koff amounted to 0.000466 s⁻¹ and the kon came out at 254000 M⁻¹ s⁻¹. Besides, in test [7], the EC50 worked out at 1.21 nM and the Maximum_MFI was 1520 MFI.

B9: F7.33.24-H11 (scFv, not shown: small tags and cut ends)
scFv: EVQLVQSGAEVKKPGASVKVSCKASGYTFTSYWMHWVRQAPGQGLEWMGNVNPSNAGSNYNEKFKNRVTITVDKSASTAYMELSSLRSEDTAVYYCAPHYIGSRPGFAYWGQGTLVTVSSGGGGSGGGGSGGGGSDIVMTQTPLSLSVTPGQPASISCKASQNVGTNIAWYLQKPGQSPQALIYSASYRYSGVPDRFSGSGSGTDFTLKISRVEAEDVGVYYCQQYNSYPLTFGGGTKVEIK
notes: also called S009-F7.33.24 humanized antibody VH2a + VL2
As for B9, the figures for the EC50 in test [4], in test [5] and in test [7] were 2.25 nM, 1.46 nM and 0.42 nM, respectively. In addition, the Maximum_MFI in test [4] is 2130 MFI; in test [5], 8580 MFI; in test [7], 1590 MFI.

B10: F7.33.24-H8 (scFv, not shown: small tags and cut ends)
scFv: EVQLVQSGAEVKKPGASVKVSCKASGYTFTSYWMHWVRQAPGQGLEWMGNVNPSNGGSNYNEKFKNRVTITVDKSASTAYMELSSLRSEDTAVYYCAPHYIGSRPGFAYWGQGTLVTVSSGGGGSGGGGSGGGGSDIVMTQTPLSLSVTPGQPASISCKASQNVGTNIAWYLQKPGQSPQALIYSASYRYSGVPDRFSGSGSGTDFTLKISRVEAEDVGVYYCQQYNSYPLTFGGGTKVEIK
notes: also called S009-F7.33.24 humanized antibody VH2 + VL2
B10: in test [4], the EC50 came out at 1.8 nM and the Maximum_MFI was 2250 MFI. Further, in test [5], the EC50 was found to be 4.6 nM and the Maximum_MFI turned out to be 8000 MFI. In addition, in test [6], the Kd was 1.32 nM, the koff stood at 0.000529 s⁻¹ and the kon turned out to be 402000 M⁻¹ s⁻¹. For the same molecule, in test [7], the EC50 was 1.52 nM and the Maximum_MFI was determined as 1400 MFI.

B11: F7.33.24-H5 (scFv, not shown: small tags and cut ends)
scFv: EVQLVQSGAEVKKPGASVKVSCKASGYTFTSYWMHWVRQAPGQRLEWMGNVNPSSGGSNYNEKFKNRVTITVDKSASTAYMELSSLRSEDTAVYYCAPHYIGSRPGFAYWGQGTLVTVSSGGGGSGGGGSGGGGSDIVMTQTPLSLSVTPGQPASISCKASQNVGTNIAWYLQKPGQSPQALIYSASYRYSGVPDRFSGSGSGTDFTLKISRVEAEDVGVYYCQQYNSYPLTFGGGTKVEIK
notes: also called S009-F7.33.24 humanized antibody VH1a + VL2
For B11, in test [4], a half-maximal effect (EC50) was put at 2.78 nM and the Maximum_MFI came out at 2420 MFI. In test [5], the EC50 was determined as 4.98 nM and the Maximum_MFI stood at 8430 MFI. Moreover, in test [6], the Kd was 1.06 nM, the koff came to 0.000435 s⁻¹ and the kon is 409000 M⁻¹ s⁻¹. Also, in test [7], the EC50 was determined as 1.35 nM and the Maximum_MFI worked out at 1470 MFI.

B12: F7.33.24-H12 (scFv, not shown: small tags and cut ends)
scFv: EVQLVQSGAEVKKPGASVKVSCKASGYTFTSYWMHWVRQAPGQGLEWMGNVNPSNAGSNYNEKFKNRVTITVDKSASTAYMELSSLRSEDTAVYYCAPHYIGSRPGFAYWGQGTLVTVSSGGGGSGGGGSGGGGSDIVMTQTPLSLSVTPGQPASISCKASQNVGTNIAWYQQKPGQSPQALIYSASYRYSGVPDRFSGSGSGTDFTLKISRVEAEDVGVYYCQQYNSYPLTFGGGTKVEIK
notes: also called S009-F7.33.24 humanized antibody VH2a + VL3
On to B12, for which the EC50 in test [4] was 0.92 nM; in test [5] it was 5.07 nM; in test [7], 1.27 nM. Further, the Maximum_MFI is 2200 MFI in test [4], 7940 MFI in test [5] and 1330 MFI in test [7].
